For assay [1], the target named is T1, NEF peptide on HLA-A*24:02 (human).
T1 peptide: RYPLTFGWCF
The experiment in a line: cytokine release.

Assay [2] has as its target T2, WT1 peptide on HLA-A*02:01 (human).
T2 peptide: RMFPNAPYL
The experiment in a line: activation reporter or marker.

B1: FE11 γδTCR (TCR, V domains shown)
Vgamma: SSNLEGGTKSVTRPTRSSAEITCDLTVINAFYIHWYLHQEGKAPQRLLYYDVSNSKDVLESGLSPGKYYTHTPRRWSWILILRNLIENDSGVYYCATWDRPEIYYKKLFGSGTTLVVT
Vdelta: not shown
For B1, the binding result in assay [1] and in assay [2] was “no recognition” throughout.

(Values after patent US20230248770A1 (published 2023).)
